# B1: GLP1-L1-Fc2-L2-ST (Fc fusion)
# chain: HGEGTFTSDVSSYLEEQAAKEFIAWLVKGGGGGGGSGGGGSGGGGSAVECPPCPAPPVAGPSVFLFPPKPKDTLMISRTPEVTCVVVDVSHEDPEVQFNWYVDGVEVHNAKTKPREEQFNSTFRVVSVLTVVHQDWLNGKEYKCKVSNKGLPAPIEKTISKTKGQPREPQVYTLPPSREEMTKNQVSLTCLVKGFYPSDIAVEWESNGQPENNYKTTPPMLDSDGSFFLYSKLTVDKSRWQQGNVFSCSVMHEALHNHYTQKSLSLSPGGSGGGSGGGGSGGGGSLPETG
# B2: GLP1-L1-Fc2-L2-ST crosslinked with 20 kDa PEG (Fc fusion)
# chain: HGEGTFTSDVSSYLEEQAAKEFIAWLVKGGGGGGGSGGGGSGGGGSAVECPPCPAPPVAGPSVFLFPPKPKDTLMISRTPEVTCVVVDVSHEDPEVQFNWYVDGVEVHNAKTKPREEQFNSTFRVVSVLTVVHQDWLNGKEYKCKVSNKGLPAPIEKTISKTKGQPREPQVYTLPPSREEMTKNQVSLTCLVKGFYPSDIAVEWESNGQPENNYKTTPPMLDSDGSFFLYSKLTVDKSRWQQGNVFSCSVMHEALHNHYTQKSLSLSPGGSGGGSGGGGSGGGGSLPETGGGAA
# modifications: 20 kDa PEG on the added C-terminal GGGAA (GGGAA-PEG joined by sortase A to the T of LPET)
# B3: GLP1-L1-Fc2-L2-ST crosslinked with 40 kDa PEG (Fc fusion)
# chain: B2 chain
# modifications: 40 kDa PEG on the added C-terminal GGGAA (GGGAA-PEG joined by sortase A to the T of LPET)
# Target: GLP-1 receptor (GLP-1R) on HEK293/CRE-Luc/GLP1R cells (UniProt P43220 24-463, limits assumed)
# Assay: cell-based or functional assay
row,"relative activity compared with dulaglutide (CRE-luciferase reporter, HEK293/CRE-Luc/GLP1R cells) [%]",Binder
1,98.1,B1
2,40.4,B2
3,32.9,B3

# Reference: US20220000984A1 (JIANGSU GENSCIENCES, published 2022)
